{"source": "paper doi:10.1101/2024.02.29.582761", "assay_in_all_cases": "BLI", "key": {"[1]": {"biological_target": "His-SUMO-GroTAC1 (E. coli)"}, "[2]": {"biological_target": "His-SUMO-XB-GGS peptide (E. coli)"}, "[3]": {"biological_target": "His-SUMO-GGS-SBP peptide"}}, "data": [{"substance": "ClpX (from UniProt P0A6H1 1-424) (enzyme)", "values": [{"measurement": "Kd", "setting": "[1]", "value": 0.07, "unit": "µM"}, {"measurement": "Kd", "setting": "[2]", "value": 0.065, "unit": "µM"}]}, {"substance": "GroEL (from UniProt P0A6F5 1-548) (natural protein)", "values": [{"measurement": "Kd", "setting": "[1]", "value": 0.154, "unit": "µM"}, {"measurement": "Kd", "setting": "[3]", "value": 0.094, "unit": "µM"}]}]}
